Measured values as given in the Immune Epitope Database (IEDB).

Tests used:
HLA-B*53:01 = assay: IEDB peptide-MHC binding, purified MHC/competitive/fluorescence; ≥ and ≤ were set here for values at or beyond the usual limits of such assays; settings: source organism: human gammaherpesvirus 4
HLA-B*15:17 [1] = assay: IEDB peptide-MHC binding, purified MHC/direct/fluorescence; filed as Kd, often an IC50 or EC50 that approximates it; ≥ and ≤ were set here for values at or beyond the usual limits of such assays; settings: source organism: Campylobacter jejuni RM1221
HLA-B*57:01 [2] = assay: as above; settings: source organism: Campylobacter jejuni RM1221
HLA-B*58:01 [3] = assay: as above; settings: source organism: Campylobacter jejuni RM1221
HLA-C*15:02 = assay: as above
HLA-C*12:03 = assay: as above
HLA-A*01:01 [4] = assay: as above; settings: source organism: Haemophilus influenzae
HLA-A*02:01 [5] = assay: as above; settings: source organism: Haemophilus influenzae
HLA-A*69:01 [6] = assay: as above; settings: source organism: Haemophilus influenzae
HLA-B*15:01 [7] = assay: as above; settings: source organism: Haemophilus influenzae
HLA-A*02:03 = assay: IEDB peptide-MHC binding, purified MHC/competitive/fluorescence; filed as Kd, often an IC50 or EC50 that approximates it; ≥ and ≤ were set here for values at or beyond the usual limits of such assays
HLA-A*02:06 = assay: as above
HLA-A*02:11 = assay: as above
HLA-C*03:03 = assay: IEDB peptide-MHC binding, purified MHC/direct/fluorescence; filed as Kd, often an IC50 or EC50 that approximates it; ≥ and ≤ were set here for values at or beyond the usual limits of such assays
HLA-B*15:01 [8] = assay: IEDB peptide-MHC binding, purified MHC/competitive/fluorescence; filed as Kd, often an IC50 or EC50 that approximates it; ≥ and ≤ were set here for values at or beyond the usual limits of such assays
HLA-A*02:01 [9] = assay: as above
HLA-A*02:12 = assay: as above; settings: source organism: Escherichia coli 536
HLA-A*02:16 = assay: as above; settings: source organism: Escherichia coli 536
HLA-A*02:19 = assay: as above; settings: source organism: Escherichia coli 536
HLA-A*03:01 = assay: as above; settings: source organism: Escherichia coli 536
HLA-A*23:01 = assay: as above
HLA-A*24:03 = assay: as above; settings: source organism: Escherichia coli 536
HLA-A*26:01 = assay: as above; settings: source organism: Escherichia coli 536
HLA-A*29:02 = assay: as above; settings: source organism: Escherichia coli 536
HLA-A*68:02 = assay: as above; settings: source organism: Escherichia coli 536
HLA-A*69:01 [10] = assay: as above; settings: source organism: Escherichia coli 536
HLA-B*15:17 [11] = assay: as above; settings: source organism: Escherichia coli 536
HLA-B*18:01 = assay: as above; settings: source organism: Escherichia coli 536
HLA-B*27:03 = assay: as above; settings: source organism: Escherichia coli 536
HLA-B*39:01 = assay: as above; settings: source organism: Escherichia coli 536
HLA-B*46:01 = assay: as above; settings: source organism: Escherichia coli 536
HLA-B*51:01 = assay: as above
HLA-B*57:01 [12] = assay: as above; settings: source organism: Escherichia coli 536
HLA-B*15:42 = assay: as above
HLA-B*45:06 = assay: as above
HLA-B*83:01 = assay: as above
HLA-C*04:01 = assay: as above
HLA-C*05:01 = assay: IEDB peptide-MHC binding, purified MHC/direct/fluorescence; filed as Kd, often an IC50 or EC50 that approximates it; ≥ and ≤ were set here for values at or beyond the usual limits of such assays
HLA-B*07:02 = assay: as above; settings: source organism: Mycobacterium tuberculosis variant bovis BCG str. Pasteur 1173P2
HLA-B*35:01 = assay: IEDB peptide-MHC binding, purified MHC/competitive/fluorescence; filed as Kd, often an IC50 or EC50 that approximates it; ≥ and ≤ were set here for values at or beyond the usual limits of such assays; settings: source organism: Mycobacterium tuberculosis C
HLA-A*01:01 [13] = assay: as above; settings: source organism: Escherichia coli
HLA-B*58:01 [14] = assay: as above; settings: source organism: Escherichia coli
[15] = source organism: Human herpesvirus 4 strain B95-8
[16] = source organism: Haemophilus influenzae R3021
[17] = source organism: Salmonella enterica subsp. enterica serovar Typhi str. CT18
[18] = source organism: Escherichia coli 536
[19] = source organism: Yellow fever virus 1899/81
[20] = source organism: Mycobacterium tuberculosis C
[21] = source organism: Yersinia pestis Nepal516
[22] = source organism: Haemophilus influenzae R2846
[23] = source organism: Escherichia coli O157:H7 str. EDL933

Sequence HPVLVTATL has an IC50 (HLA-B*53:01) of 3910 nM.

Work on HSNSEYLMF yielded a Kd (HLA-B*15:17 [1]) of 1.1 nM, a Kd (HLA-B*57:01 [2]) of 134 nM and a Kd (HLA-B*58:01 [3]) of 5.5 nM. The Kd (HLA-C*15:02; source organism: Campylobacter jejuni) was 93 nM.

For KAVETPILV, the Kd (HLA-C*12:03; [15]) was ≤ 1 nM and the Kd (HLA-C*15:02; [15]) was 51 nM.

Sequence MLEEMQSAV has a Kd (HLA-A*01:01 [4]) of 2100 nM, a Kd (HLA-A*02:01 [5]) of 71 nM and a Kd (HLA-A*69:01 [6]) of 2660 nM. For the same sequence, the Kd (HLA-B*15:01 [7]) was ≥ 67200 nM, the Kd (HLA-A*02:03; [16]) was 4.4 nM and the Kd (HLA-A*02:06; [16]) was ≤ 0.1 nM. The Kd (HLA-A*02:11; [16]) was ≤ 0.1 nM.

With MLNRYKLIY the IC50 (HLA-B*53:01) was 170 nM.

MMQTYTGAL gave a Kd (HLA-C*03:03; [17]) of 119 nM and a Kd (HLA-B*15:01 [8]; [17]) of 64.9 nM.

In the case of MTAASYARY, the IC50 (HLA-B*53:01) is reported as ≥ 20000 nM.

QTDNDIWFW was tested, and the Kd (HLA-A*02:01 [9]; [18]) was ≥ 20000 nM, the Kd (HLA-A*02:03; [18]) was ≥ 20000 nM and the Kd (HLA-A*02:11; [18]) was ≥ 20000 nM. For the same sequence, the Kd (HLA-A*02:12) was ≥ 20000 nM, the Kd (HLA-A*02:16) was ≥ 20000 nM and the Kd (HLA-A*02:19) was ≥ 20000 nM. The Kd (HLA-A*03:01) was ≥ 20000 nM, the Kd (HLA-A*23:01; [18]) was ≥ 20000 nM and the Kd (HLA-A*24:03) was ≥ 20000 nM. The Kd (HLA-A*26:01) was ≥ 20000 nM, the Kd (HLA-A*29:02) was ≥ 20000 nM and the Kd (HLA-A*68:02) was ≥ 20000 nM. For the same sequence, the Kd (HLA-A*69:01 [10]) was ≥ 20000 nM, the Kd (HLA-B*15:01 [8]; [18]) was ≥ 20000 nM and the Kd (HLA-B*15:17 [11]) was ≥ 20000 nM. For the same sequence, the Kd (HLA-B*18:01) was ≥ 20000 nM, the Kd (HLA-B*27:03) was ≥ 20000 nM and the Kd (HLA-B*39:01) was ≥ 20000 nM. For the same sequence, the Kd (HLA-B*46:01) was ≥ 20000 nM, the Kd (HLA-B*51:01; [18]) was ≥ 20000 nM and the Kd (HLA-B*57:01 [12]) was 880 nM.

For REMHHLVEF, the Kd (HLA-B*15:42; [19]) was ≥ 5000 nM, the Kd (HLA-B*45:06; [19]) was ≥ 5000 nM and the Kd (HLA-B*83:01; [19]) was ≥ 5000 nM. For the same sequence, the Kd (HLA-C*04:01; [19]) was ≥ 5000 nM.

For RLYQYSFAK, the Kd (HLA-B*15:42; [20]) was ≥ 5000 nM, the Kd (HLA-B*45:06; [20]) was ≥ 5000 nM and the Kd (HLA-B*83:01; [20]) was ≥ 5000 nM. For the same sequence, the Kd (HLA-C*04:01; [20]) was ≥ 5000 nM.

RQPLNIQAI was tested, and the Kd (HLA-A*02:01 [9]; [21]) was 305 nM and the Kd (HLA-A*02:06; [21]) was 59.2 nM.

For TSDEIYMTF, the Kd (HLA-C*05:01; [22]) was 16 nM and the Kd (HLA-C*15:02; [22]) was ≥ 20000 nM.

VMLQIPFYK showed a Kd (HLA-A*23:01; source organism: Rickettsia bellii RML369-C) of 308 nM.

In the case of WPVLGSEVL, the Kd (HLA-B*07:02) is reported as 223 nM, the Kd (HLA-B*35:01) is reported as ≤ 0.1 nM and the Kd (HLA-B*51:01; [20]) is reported as ≥ 20000 nM.

In the case of YSALRPHEY, the Kd (HLA-C*12:03; source organism: Escherichia coli B171) is reported as 9 nM, the Kd (HLA-A*01:01 [13]) is reported as 12 nM and the Kd (HLA-B*58:01 [14]) is reported as 1380 nM.

In the case of YVLNGYTEF, the Kd (HLA-C*03:03; [23]) is reported as 60 nM, the Kd (HLA-C*05:01; [23]) is reported as 37 nM and the Kd (HLA-A*23:01; [23]) is reported as ≤ 1 nM.
